Results: patent publication US20240002500A1 (GUANGDONG FAPON BIOPHARMA, published 2024)
Residue numbers refer to the chain shown, from its start. Each block holds one binder with its values, some of them ahead of it.

What was measured:
[1] = biological target: T1, full-length human TIGIT on cells (human, UniProt Q495A1 22-244); assay: FACS titration on PBMC of healthy people (natural TIGIT); table under the plot, unit taken from the x axis Log[µg/mL]
T1 construct: whole, on cells; The same protein is used for CHO-hTIGIT, PBMC and NK92-hTIGIT; the cells are named under assay; also called CHO-hTIGIT; hTIGIT
T1 sequence (looked up): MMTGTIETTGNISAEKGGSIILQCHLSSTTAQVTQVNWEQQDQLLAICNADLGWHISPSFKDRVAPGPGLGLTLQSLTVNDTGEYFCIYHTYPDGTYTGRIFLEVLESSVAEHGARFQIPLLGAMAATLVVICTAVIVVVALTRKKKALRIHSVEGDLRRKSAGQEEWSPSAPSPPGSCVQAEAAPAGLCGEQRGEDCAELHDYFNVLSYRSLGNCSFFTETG
Protocol: (§1) In order to verify that the prepared anti-human TIGIT antibody may effectively bind to naturally expressed TIGIT, the following experiments were specifically performed. PBMC cells in healthy people to be detected were counted, centrifuged at 300 g for 5 min, resuspended with an FCM buffer; and cell density was adjusted to 4E+06 cell/mL for later use. Samples to be detected (including a positive control antibody and a mouse monoclonal antibody) were diluted with the FCM buffer to 20 μg/mL, and then the FCM buffer was used to perform 3× serial dilutions of 12 concentration points; and the isotype control antibody was diluted with the FCM buffer to 20 μg/mL. According to an experimental design, in each well, 50 μL of the antibody and 50 μL of the cell (the volume of each cell added into a 96-well V-shaped plate being 2E+05 cell/well) were respectively added in the 96-well V-shaped plate; and incubation was performed in dark on ice for 30 min. Centrifugation (300 g/5 min) was performed; supernatant was discarded; 200 μL of the FCM buffer was added for washing once; centrifugation (300 g/5 min) was performed; and the supernatant was discarded. […] Centrifugation (300 g/5 min) was performed; supernatant was discarded; 200 μL of the FCM buffer was added for washing once; centrifugation (300 g/5 min) was performed; and the supernatant was discarded. […]

hTIGIT-hFc [2] = biological target: T2, hTIGIT-hFc (human, UniProt Q495A1 22-141); assay: FACS blocking: hTIGIT-hFc bound on U2-OS cells (PVR and CD112), then antibody, APC anti-human IgG Fc
T2 construct: also called antigen protein hTIGIT-hFc; human TIGIT recombinant protein carrying a human Fc tag; not shown: human Fc tag
T2 sequence (looked up): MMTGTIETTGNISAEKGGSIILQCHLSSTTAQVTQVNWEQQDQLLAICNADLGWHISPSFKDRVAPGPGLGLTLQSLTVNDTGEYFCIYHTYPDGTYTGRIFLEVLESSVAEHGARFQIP
Protocol: (§2) U2-OS cells to be detected (human osteosarcoma cells, naturally and highly expressing PVR and CD112 by means of detection) were counted; centrifugated at 300 g for 5 min; resuspended with an FCM buffer; and cell density was adjusted to 4E+06 cell/mL for later use. […] According to an experimental design, in each well, 50 μL of the antigen protein and 50 μL of the cell (the volume of each cell added into a 96-well V-shaped plate being 2E+05 cell/well) were respectively added in the 96-well V-shaped plate; and incubation was performed in dark on ice for 30 min. Centrifugation (300 g/5 min) was performed; supernatant was discarded; 200 μL of the FCM buffer was added for washing once; centrifugation (300 g/5 min) was performed; and the supernatant was discarded. The antibody was added to the 96-well V-shaped plate (in 100 μL/well); and incubation was performed in dark on ice for 30 min. Centrifugation (300 g/5 min) was performed; supernatant was discarded; 200 μL of the FCM buffer was added for washing once; centrifugation (300 g/5 min) was performed; and the supernatant was discarded. Secondary antibodies (APC anti-human IgG Fc, 1:500 dilution) were added to the 96-well V-shaped plate (in 100 μL/well); and incubation was performed in dark on ice for 30 min. […]

hTIGIT-hFc [3] = biological target: T2, hTIGIT-hFc; assay: FACS blocking: antibody preincubated with hTIGIT-hFc, then CHO-hPVR cells; unit as printed on the axis, Log(uM); the same range is labelled nM in Fig. 4A and the method's top concentration of 40 µg/mL fits nM
Protocol: The CHO-engineered cells CHO-hPVR cells recombinantly expressing full-length human PVR were counted centrifugated at 300 g for 5 min, resuspended with an FCM buffer, the cells were added to the 96-well V-shaped plate; the volume of each cell added into a 96-well V-shaped plate was 2E+05 cell/well (being added in 50 μL/well); and incubation was performed in dark on ice for 30 min. Centrifugation (300 g/5 min) was performed; supernatant was discarded; 200 μL of the FCM buffer was added for washing once; centrifugation (300 g/5 min) was performed; and the supernatant was discarded. Secondary antibodies (PE anti-human IgG Fc, 1:500 dilution) were added to the 96-well V-shaped plate (in 100 μL/well); and incubation was performed in dark on ice for 30 min. Centrifugation (300 g/5 min) was performed; supernatant was discarded; 200 μL of the FCM buffer was added for washing once; centrifugation (300 g/5 min) was performed; and the supernatant was discarded. 100 μL of the 1×PBS was added for resuspending, and on-machine detection was performed.

[4] = biological target: T1, full-length human TIGIT on cells; assay: FACS titration on PBMC of healthy people (natural TIGIT), PE goat anti-mouse IgG; number as printed beside the name, the marker of the legend lies on the leftmost curve
Protocol: as §1

[5] = biological target: T1, full-length human TIGIT on cells; assay: FACS titration on PBMC of healthy people (natural TIGIT); unit taken from the x axis Log[µg/mL]; the curve still rises at the highest concentration (MFI about 11000 at log 1), no plateau, the fitted value lies outside the range shown
Protocol: as §1

hTIGIT-hFc [6] = biological target: T2, hTIGIT-hFc; assay: FACS blocking: hTIGIT-hFc bound on U2-OS cells (PVR and CD112), then antibody, APC anti-human IgG Fc; first row of the table, row head not printed (fits the midpoint of the Tigit-5 curve; like table in Fig. 6A); unit from the x axis Log[µg/mL]
Protocol: as §2

B1: 3Tigit-16 mouse monoclonal antibody (antibody, V domains shown)
VH: EVQLQQSGPELVKPGASVKMSCKASGFTFTDYFMDWVKQSRGASFEWIGRLNPNNGRTSYNQKFKGKATLTVDKSSSTAYMELNSLTSEDSAVYYCARGDLGRWYFDVWGAGTTVTVSS
VL: QIVLTQSPAIMSASPGEKVTMTCSASSSVSYMHWYQQKSGTSPKRWIYDTSKLASGVPTRFSGSGSGTSYSLTISSMEAEDAASYFCQQWSSNSLTFGAGTKLELKR
notes: Mouse monoclonal antibody from hybridoma
EC50 [1]: 0.0247 µg/mL

B2: 3Tigit-29 mouse monoclonal antibody (antibody, V domains shown)
VH: EVQLQQSGPELVKPGASVKISCKASGYTFTDYNMHWVKQSLGKSLEWIGYVNSFNGNTGYSQKFKSKVTLTVDRSSRTAYMDLRSLTSEDSAVFYCARSSRGGFAYWGQGTLVTVSA
VL: B1 VL with T59A, G65V, S84T, F86Y
notes: as for B1
EC50 [1]: 0.0217 µg/mL

Continued, values first:

IC50 (hTIGIT-hFc [2]): 2.52 nM
IC50 (read off the curve) (hTIGIT-hFc [3]): ~1 nM
EC50 [4]: 0.179 nM
B3: 14Tigit-1-1 mouse monoclonal antibody (antibody, V domains shown)
VH: DVQLQESGPGLVKPSQSLSLTCTVTGYSITSDYAWNWIRQFPGNKLEWMGYISYSGSTRSNPSLKSRISITRDTSKNQFFLQLNSMTAEDTATYYCGGWEVRNYYAMDYWGQGTSVTVSS
VL: DIVMTQSHKFMSTSVGDRVSITCKASQHVSTAVAWYQQKPGQSPKLLIYSASYRYTGVPDRFTGSGSGTDFTFTISSVQAEDLAVYYCQQHYNTPWTFGGGTKLEIKR
notes: as for B1

EC50 [5]: ~310 µg/mL
IC50 (hTIGIT-hFc [6]): 0.335 µg/mL
B4: Tigit-5 mouse monoclonal antibody (antibody, V domains shown)
VH: QVQLQQPGAELVRPGASVKLSCKASGYSFTSYWMNWVKQRPGQGLEWIGMIRPSDSETRLNQMFKDKATLTVDKSSSTAYMQLSSPTSDDSAVYYCAGIHDYGHGAYWGQGTLVTVSA
VL: DIQMIQSPASLSVSVGETVTITCRASENIYSNLAWYQQKQGKSPQLLVYAASHLPDGVPSRFSGSGSGTQYSLKINSLQSEDFGSYYCQHFWGTPRTFGGGTKLEIKR
notes: as for B1
